Consider two substances from patent publication EP0533846B1.

For assay [1], the target named is human ciliary neurotrophic factor receptor (CNTFR) (human). Briefly: iodinated CNTF bound to SH-SY5Y cells first, then PI-PLC 500 mU/ml for 45 min; with excess unlabelled CNTF (non-specific).
For assay [2] the target is unchanged. Briefly: monolayer binding of 2.16 nM 125I-CNTF to SH-SY5Y cells (3 x 10^5 cells/well, endogenous receptor); cpm with 1000-fold excess unlabelled CNTF subtracted.
For assay [3] the target is unchanged. Nature of the assay: approx. 100 pM iodinated CNTF on SH-SY5Y cells pre-treated with PI-PLC 500 mU/ml; with thousand-fold excess unlabelled CNTF (non-specific).
Assay [4] shares this target. Nature of the assay: approx. 100 pM iodinated CNTF on SH-SY5Y cells; control pre-treatment without PI-PLC; no cold excess.
For assay [5] the target is unchanged. Briefly: monolayer binding of 2.16 nM 125I-CNTF to COS cells transfected with clone I2 (6.5 x 10^4 cells/well); specific cpm per cell.
For assay [6] the target is unchanged. Nature of the assay: approx. 100 pM iodinated CNTF on SH-SY5Y cells; control pre-treatment without PI-PLC; with thousand-fold excess unlabelled CNTF (non-specific).
Assay [7] shares this target. Briefly: iodinated CNTF bound to SH-SY5Y cells first, then PI-PLC 500 mU/ml for 45 min; no cold excess.
Assay [8] has the same target. Briefly: approx. 100 pM iodinated CNTF on SH-SY5Y cells pre-treated with PI-PLC 500 mU/ml (receptor released before binding); no cold excess.
Assay [9] shares this target. Nature of the assay: iodinated CNTF bound to SH-SY5Y cells first, then incubation without PI-PLC; with excess unlabelled CNTF (non-specific).
The target is the same in assay [10]. Nature of the assay: monolayer binding of 2.16 nM 125I-CNTF to SH-SY5Y cells (3 x 10^5 cells/well, endogenous receptor); specific cpm per cell.
Assay [11] has the same target. Nature of the assay: monolayer binding of 2.16 nM 125I-CNTF to COS cells transfected with clone I2 (6.5 x 10^4 cells/well); cpm with 1000-fold excess unlabelled CNTF subtracted.
The target is the same in assay [12]. Briefly: iodinated CNTF bound to SH-SY5Y cells first, then incubation without PI-PLC; no cold excess.
Assay [13] shares this target. Briefly: indirect binding assay on COS cells transfected with clone I11: 1 ug/ml CNTF-myc, 9E10, 125I goat anti-mouse antibody; hand-held gamma counter.
The target is the same in assay [14]. Briefly: indirect binding assay on COS cells transfected with clone I1: 1 ug/ml CNTF-myc, 9E10, 125I goat anti-mouse antibody; hand-held gamma counter.
Assay [15] has the same target. Nature of the assay: indirect binding assay on COS cells transfected with clone I9: 1 ug/ml CNTF-myc, 9E10, 125I goat anti-mouse antibody; hand-held gamma counter.
For assay [16] the target is unchanged. Briefly: indirect binding assay on COS cells transfected with clone I13: 1 ug/ml CNTF-myc, 9E10, 125I goat anti-mouse antibody; hand-held gamma counter.
Assay [17] has the same target. Briefly: indirect binding assay on COS cells transfected with clone I14: 1 ug/ml CNTF-myc, 9E10, 125I goat anti-mouse antibody; hand-held gamma counter.
For assay [18] the target is unchanged. Briefly: indirect binding assay on COS cells transfected with clone I7: 1 ug/ml CNTF-myc, 9E10, 125I goat anti-mouse antibody; hand-held gamma counter.
The target is the same in assay [19]. Briefly: indirect binding assay on COS cells transfected with clone I10: 1 ug/ml CNTF-myc, 9E10, 125I goat anti-mouse antibody; hand-held gamma counter.
The target is the same in assay [20]. Briefly: indirect binding assay on COS cells transfected with clone I8: 1 ug/ml CNTF-myc, 9E10, 125I goat anti-mouse antibody; hand-held gamma counter.
Assay [21] has the same target. Nature of the assay: indirect binding assay on COS cells transfected with clone I4: 1 ug/ml CNTF-myc, 9E10, 125I goat anti-mouse antibody; hand-held gamma counter.
Assay [22] shares this target. Briefly: indirect binding assay on COS cells transfected with clone I5: 1 ug/ml CNTF-myc, 9E10, 125I goat anti-mouse antibody; hand-held gamma counter.
The target is the same in assay [23]. Nature of the assay: indirect binding assay on COS cells transfected with clone I6: 1 ug/ml CNTF-myc, 9E10, 125I goat anti-mouse antibody; hand-held gamma counter.
Assay [24] has the same target. Briefly: indirect binding assay on COS cells transfected with clone I15: 1 ug/ml CNTF-myc, 9E10, 125I goat anti-mouse antibody; hand-held gamma counter.
Assay [25] shares this target. Nature of the assay: indirect binding assay on COS cells transfected with clone I12: 1 ug/ml CNTF-myc, 9E10, 125I goat anti-mouse antibody; hand-held gamma counter.
Assay [26] has the same target. Briefly: indirect binding assay on COS cells transfected with clone I2: 1 ug/ml CNTF-myc, 9E10, 125I goat anti-mouse antibody; hand-held gamma counter.
Assay [27] has the same target. Briefly: indirect binding: CNTF-myc, 9E10 antibody, FITC-labelled goat anti-mouse antibody, FACS on transfected COS cells.

On to “125I-hCNTF (iodinated human ciliary neurotrophic factor) (from UniProt P26441 1-200) (ligand)”, for which the CPM Bound in [1] came out at 300 CPM; in assay [3], 310 CPM; in assay [4], 1440 CPM; in assay [6], 370 CPM; in assay [7], 1060 CPM; in assay [8], 420 CPM. In addition, the CPM Bound worked out at 310 CPM in assay [9] and 1250 CPM in assay [12]. Also, the Specific cpm bound in [2] is 1280 cpm; in assay [11], 1410 cpm. For the same substance, the cpm/cell in assay [5] is 0.0217 cpm/cell; in assay [10], 0.00428 cpm/cell.

For “CNTF/myc (CNTF carrying a C-terminal ten amino acid c-myc epitope tag) (ligand)”, the CPM bound (125I-GaM) in assay [13] amounted to 7000 CPM; in [14], 2000 CPM; in assay [15] it was 7000 CPM; in [16], 8000 CPM; in [17], 10000 CPM; in assay [18], 6000 CPM. Also, the CPM bound (125I-GaM) in assay [19] was found to be 4500 CPM; in [20], 7500 CPM; in assay [21] it was 9000 CPM; in assay [22], 2000 CPM; in [23], 1600 CPM; in [24], 8000 CPM. Also, the figures for the CPM bound (125I-GaM) in assay [25] and in [26] were 5000 CPM and 8500 CPM, respectively. In assay [27], the fold increase (FACS fluorescence) against cells transfected with negative clones came to 100 fold.
